Laboratory results as given in patent US20180044422A1 (NEW YORK UNIVERSITY, published 2018).

Legend:
[1] = target: T1, Galectin-3 (Biolegend) (Mus musculus (Mouse), UniProt P16110 2-264); assay: ELISA, plate coated with Galectin-3, Dectin-1 IgG Fc at 2.5 µg/ml (concentration from paragraph 191, not on the sheet), detection with anti-IgG-HRP [cont.) I]
T1 construct: The sentence reads 'recombinant mouse Galectin-9 ..., Galectin-3, or Galectin-4'; whether 'mouse' also applies to Galectin-3 is not clear
Procedure: (§1) To investigate if Galectin-9 can bind with Dectin-1, Protein G-magnet beads (2 ml; Dynabeads) were loaded with Dectin-1 IgG Fc (1 mg) or control IgG Fc before washing and blocking. Subsequently, beads were incubated with recombinant Galectin-9 ([…]; R&D Systems) for 30 min, washed, and stained with PE-conjugated anti-Galectin-9 (Biolegend, San Diego Calif.). Galectin-9 specific staining was determined by flow cytometry. To investigate the interaction between Galectin-9 and Dectin-1 by ELISA, plates (Maxisorp, Nunc, St. Louis, Mo.) were coated with recombinant mouse Galectin-9 ([…]; R&D Systems, Minneapolis, Minn.), Galectin-3, or Galectin-4 (both […]; Biolegend) for 16 hours at 4° C., blocked with 1% BSA/PBS for 1 hour, and incubated with increasing doses of Dectin-1 IgG Fc or control IgG Fc for 2 hours. The Galectin-bound Dectin-1 IgG Fc was detected with anti-IgG-HRP. […] Bead-bound precipitates were resuspended with loading buffer, resolved by SDS-PAGE under reduced conditions for western blotting using mAbs specific for Galectin-9. […] Dectin-1 signaling was measured by detection of secreted embryonic alkaline phosphatase. […] Syk phosphorylation was measured by flow cytometry at 3 hours.

[2] = target: T2, Galectin-4 (Biolegend) (Mus musculus (Mouse), UniProt Q8K419 1-326); assay: ELISA, plate coated with Galectin-4, Dectin-1 IgG Fc at 2.5 µg/ml (concentration from paragraph 191, not on the sheet), detection with anti-IgG-HRP [cont.) I]
T2 construct: The sentence reads 'recombinant mouse Galectin-9 ..., Galectin-3, or Galectin-4'; whether 'mouse' also applies to Galectin-4 is not clear
T2 sequence: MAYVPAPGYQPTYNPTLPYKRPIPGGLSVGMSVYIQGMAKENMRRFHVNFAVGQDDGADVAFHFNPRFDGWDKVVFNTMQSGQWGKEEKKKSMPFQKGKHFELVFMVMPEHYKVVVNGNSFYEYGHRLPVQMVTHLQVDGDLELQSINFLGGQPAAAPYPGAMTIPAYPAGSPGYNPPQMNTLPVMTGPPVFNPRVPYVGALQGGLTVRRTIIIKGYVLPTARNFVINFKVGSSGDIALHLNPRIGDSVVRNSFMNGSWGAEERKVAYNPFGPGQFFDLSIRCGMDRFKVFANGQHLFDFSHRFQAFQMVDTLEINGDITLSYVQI
Procedure: as §1

T1 sequence (P16110 2-264 limits assumed): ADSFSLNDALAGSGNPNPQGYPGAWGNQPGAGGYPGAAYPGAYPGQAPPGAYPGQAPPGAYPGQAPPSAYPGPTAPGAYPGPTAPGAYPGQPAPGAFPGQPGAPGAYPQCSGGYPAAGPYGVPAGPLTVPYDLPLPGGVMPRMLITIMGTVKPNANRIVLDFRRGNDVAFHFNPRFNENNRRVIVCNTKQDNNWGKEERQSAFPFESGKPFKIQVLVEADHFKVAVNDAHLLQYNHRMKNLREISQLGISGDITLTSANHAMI

B1: human IgG Fc-conjugated Dectin-1 fusion protein (murine Dectin-1 IgG Fc; fc-mdec1a, InvivoGen) (Fc fusion, mouse, UniProt Q6QLQ4 69-244, looked up)
chain: EYGHNSGRNPEEKDNFLSRNKENHKPTESSLDEKVAPSKASQTTGGFSQPCLPNWIMHGKSCYLFSFSGNSWYGSKRHCSQLGAHLLKIDNSKEFEFIESQTSSHRINAFWIGLSRNQSEGPWFWEDGSAFFPNSFQVRNTAPQESLLHNCVWIHGSEVYNQICNTSSYSICEKEL
notes: Bought reagent (fc-mdec1a; InvivoGen); also called Dectin-1 Fc; not shown: human IgG Fc
binding result [1]: no binding (tested: 2.5 µg/ml)
binding result [2]: no binding (tested: 2.5 µg/ml)
